Here are results for 1 substance from paper PMC2908543, “Uropathogenic Escherichia coli Modulates Immune Responses and Its Curli Fimbriae Interact with the Antimicrobial Peptide LL-37” (PLoS Pathogens, 2010).

Test [1] addresses recombinant CsgA-His6 (E. coli) (UniProt P28307).
The target is the same in test [2]. As to the kind of experiment: thioflavin T fluorescence quantified by confocal microscopy; monomeric CsgA with equimolar LL-37, sLL-37 or VIP and 20 µM ThT, over night at 37°C, washed; fluorescence relative to CsgA alone.

A value given as a limit tells only on which side of the number the result lay.

With human antimicrobial peptide LL-37, in test [1], the curli-mediated biofilm formation of E. coli in microtiter plates (crystal violet), reduction by 2.5 µM LL-37; the pair blocked is CsgA with CsgA (polymerization) is > 80%. The ThT fluorescence of CsgA with the peptide at 1:1, relative to CsgA alone (1 arbitrary unit) (arbitrary units) in test [2] was 0.05.
